# Article doi:10.1101/2022.08.03.502629
# pKd: −log10 of the molar value.
# Molecular target: antithrombin (UniProt P01008)
# Assay: SPR
# Chain of UniProt P01008 (P01008 33-464): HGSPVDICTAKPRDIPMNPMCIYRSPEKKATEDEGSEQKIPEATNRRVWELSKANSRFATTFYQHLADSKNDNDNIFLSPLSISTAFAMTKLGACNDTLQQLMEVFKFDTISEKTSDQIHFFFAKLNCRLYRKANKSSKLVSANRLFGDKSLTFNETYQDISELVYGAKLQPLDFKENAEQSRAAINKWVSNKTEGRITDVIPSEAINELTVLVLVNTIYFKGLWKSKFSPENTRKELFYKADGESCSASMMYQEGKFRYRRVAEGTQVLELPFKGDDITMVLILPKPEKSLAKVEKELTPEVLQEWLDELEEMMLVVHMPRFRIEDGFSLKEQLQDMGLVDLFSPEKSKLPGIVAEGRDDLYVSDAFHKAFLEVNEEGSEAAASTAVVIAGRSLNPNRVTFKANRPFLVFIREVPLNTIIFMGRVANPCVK
row,pKd,Substance
1,6.38,S195A Gla-domainless factor Xa (domain or fragment)
2,6.34,K96Y S195A Gla-domainless factor Xa (domain or fragment)
